From patent US11787850B2, “Peptidic TGF-beta antagonists” (priority 2015, dated 2023)

Columns and labels:
[1] = Size-exclusion chromatography on Superdex Peptide 10/300GL column; assay type: physicochemical; settings: for formation of aggregates by size-exclusion chromatography: peptide in PBS, Superdex Peptide 10/300GL, 0.6 ml/min; for Aggregation?: size-exclusion chromatography, peptide dissolved in PBS
Description: Approximately 200 μg of each peptide X (40 amino acids), X-1 (28 amino acids), peptide A (161 amino acids), P11 (11 amino acids), P16 (16 amino acids), P21 (21 amino acids, P16-2 (16 amino acids, scrambled sequence control), X-3 (16 amino acids) and X-4 (11 amino acids) were dissolved in phosphate-buffered saline (PBS) and loaded onto a Superdex Peptide 10/300GL column. The column was eluted with PBS at a flow rate of 0.6 mL/min and eluents were analyzed for peptide content by measuring relative absorbance at a wavelength of 215 nm. (FIGS. 3A and 3B) The data is plotted with relative absorbance (Y-axis) against elution volume (X-axis). Peptides 1-9 are color coded (A—peptides (1) to (5); B (peptides (6) to (9)). As shown on panel A, peptide X (peptide 1, black line) elution profile indicated two major peaks at approximately 8 mL and 11 mL which correspond to molecular weights greater than 12.4 kDa. The theoretical molecular weight of peptide X is 4.7 kDa which is expected to elute from the column at approximately 15 mL. Under the conditions tested, peptide X existed as high molecular weight aggregates with minimal soluble (monomeric) form. On the other hand, P16 (peptide 5, green line) elution profile indicated a broad peak between 14-22 mL which is expected to contain peptides of between 0.1 and 6 kDa and is consistent with its theoretical molecular weight of 2.01 kDa.
FIG. 4 illustrates the standard curve used for size-exclusion chromatography of standard peptides using the Superdex Peptide 10/300 GL column (results provided in FIG. 3). A pool of standard peptides of various molecular weights (1. cytochrome c (Mr 12.384 kDa) 1 mg/mL; 2. aprotinin (Mr 6.512 kDa) 2 mg/mL; 3. vitamin B12 (Mr 1.355 kDa) 0.1 mg/mL; 4. (Gly)3 (Mr 0.189 kDa) 0.1 mg/mL; 5. Gly (Mr 0.075 kDa) 7.8 mg/mL) were subjected to size-exclusion chromatography using the Superdex Peptide 10/300 GL column (flow rate 0.5 ml/min at room temperature, sample volume of 50 μL, eluent 0.05M phosphate, 0.15 M NaCl, ph 7.0). The resulting chromatogram (absorbance at 215 nm (in mAU, left Y axis) and conductivity (in mS/cm, right Y axis, in function of volume of elution (in mL)) indicates the elution profiles of the above peptides with high MW peptides eluting in earlier fractions and lower MW peptides eluting in later fractions as expected. The molecular weights of peptides were plotted against elution volume generating a standard curve (not shown).
More specifically, approximately […] of each peptide X (40 amino acids), X-1 (28 amino acids), peptide A (161 amino acids), P11 (11 amino acids), P16 (16 amino acids), P21 (21 amino acids, P16-2 (16 amino acids, scrambled sequence control), X-3 (16 amino acids) and X-4 (11 amino acids) were dissolved in phosphate-buffered saline (PBS) and loaded onto a Superdex Peptide 10/300GL column. The column was eluted with PBS at a flow rate of 0.6 ml/min and eluants were analyzed for peptide content by measuring relative absorbance at a wavelength of 215 nm. The data were plotted with relative absorbance (Y-axis) against elution volume (X-axis). […] The theoretical molecular weight of peptide X is 4.7 kDa which is expected to elute from the column at approximately 15 mL. […] P16 (peptide 5) elution profile indicated a peak between 14-22 mL which was expected to contain peptides of between 0.1 and 6 kDa and is consistent with its theoretical molecular weight of 2.01 kDa.
More specifically, a pool of standard proteins of various molecular weights were subjected to size-exclusion chromatography using the Superdex Peptide 10/300 GL column. The resulting chromatogram indicated the elution profiles of the peptides with high molecular weight peptides eluting in earlier fractions and lower molecular weight peptides eluting in later fractions as expected. The molecular weights of peptides were plotted against elution volume generating a standard curve (not shown) and was used to calculate molecular weights of the CD109-based peptides. […]

[2] = test system: TGF-β1-induced PAI-1 protein production in A431 cells; experiment: Western blot for PAI-1 in A431 cells; assay type: cell-based; settings: 10 nM peptide, 100 pM TGF-β1, 24 hrs (FIG. 7)
Description: FIG. 7 illustrates that the small molecular weight CD109-based peptide P16 (but not P11 or P16-1) inhibits TGF-β1-induced PAI-protein production. A431 cells were treated without (lane 1) or with 100 pM of TGF-β1 (lanes 2-6) in the absence (lane 2) or presence of 10 nM of P11 (11 aa peptide, lane 3), P16 (16 aa peptide, lane 4), P16-1 (scrambled peptide of 16 aa, lane 5) or Tris buffer (buffer, lane 6) for 24 hrs. Cell lysates were analyzed by Western blot for PAI-1 ([…]) protein levels and normalized to GAPDH protein levels (loading control). In the conditions tested, P16 (but not P11) inhibited TGF-β1-induced PAI-1 expression.
A431 cells were treated for 18 hours without (−) or with (+) 100 pM TGF-β1 in the presence or absence of Peptide X or P16. The peptides were previously dissolved in Tris buffer and left untreated or treated with DMSO prior to addition to the cells. Cell lysates were analyzed by Western blot for PAI-1 (plasminogen activator inhibitor-1) protein expression (top panel) and GAPDH served as a loading control (bottom panel). PAI-1 was not detected in untreated cells (lane 1).
A431 cells were grown in 6-well plates to 70-80% confluency and serum-starved overnight. Cells were washed with PBS and treated with or without TGF-β1 in presence or absence of various CD109-based peptides as indicated in the figure legends. Cells were solubilized with 500 μl of lysis buffer (50 mM Tris, pH 7.5, 150 mM NaCl, 50 mM NaF, 50 mM β-glycerophosphate, 1 mM sodium orthovanadate, 1 mM dithiothreitol, 5 mM EDTA, pH 8.0, 1% Nonidet P-40, 10% glycerol, 10 μM phenylmethylsulfonyl fluoride, 200 μg/ml bovine serum albumin, 1 μg/ml leupeptin, […] soybean trypsin inhibitor, 10 μg/ml benzamide, and 2 μg/ml pepstatin) for 30 min at 4° C. with mild agitation. Cell lysates were collected and centrifuged for 10 min at 10,000×g. The supernatants were collected and protein concentrations were determined using the Bio-Rad protein assay kit. Lysates containing equivalent protein concentrations were mixed with 0.2 volume of 5× electrophoresis sample buffer containing 5% β-mercaptoethanol and boiled for 5 min. Samples were resolved on 7.5% SDS-polyacrylamide gels and transferred to nitrocellulose membranes. Membranes were blocked for 3 h in blocking buffer (30 mM Tris, pH 7.5, 150 mM NaCl, and 0.05% (w/v) Tween 20™ (Tris-buffered saline/Tween) containing 5% (w/v) skim milk powder). The blot was incubated overnight at 4° C. with a 1:1000 dilution of anti-PAI-1 antibody (BD Biosciences). Blots were washed with Tris-buffered saline/Tween and incubated for 45 min at room temperature with a 1:5000 dilution of secondary antibody conjugated to horseradish peroxidase (Pierce). Chemiluminescence detection of the immune complexes was performed using the ECL system (Amersham Biosciences) according to the manufacturer's instructions. The membranes were stripped and reprobed with an anti-GAPDH antibody to confirm equal protein loading.
A431 cells were treated without (lane 1) or with 100 pM of TGF-β1 (lanes 2-6) in the absence (lane 2) or presence of 10 nM of P11 (11 aa peptide, lane 3), P16 (16 aa peptide, lane 4), P16-1 (scrambled peptide of 16 aa, lane 5) or Tris buffer (buffer, lane 6) for 24 hrs. Cell lysates were analyzed by Western blot for PAI-1 ([…]) protein levels and normalized to GAPDH protein levels (loading control).
A431 squamous cell carcinoma cells were treated for 18 hours without (−) or with (+) 100 pM TGF-β1 in the presence or absence of Peptide X or P16. The peptides were dissolved in Tris buffer and left untreated or treated with 0.5% DMSO prior to addition to the cells. Cell lysates were analyzed by Western blot for PAI-1 ([…]) protein expression (top panel) and GAPDH served as a loading control (bottom panel).

[3] = test system: TGF-β1-induced Smad3-driven (CAGA12-lux) transcriptional activity; experiment: Luciferase reporter assay in HEK293-(CAGA)12 cells; assay type: cell-based
[4] = 10 nM peptide, 100 pM TGF-β1, 18 hours (FIG. 6)

Sequence	formation of aggregates by size-exclusion chromatography [1]	Aggregation? [1]	inhibition of TGF-β1-induced PAI-1 protein production [2]	inhibition of TGF-β1-induced CAGA12-lux activity [3, 4]	inhibition of TGF-β1-induced CAGA12-lux activity ([3]; 10 nM or 5 nM peptide, 100 pM TGF-β1, 18 hours (FIG. 5))
ETWIWLDTNMG [Peptide P11]	did not	Not aggregated	not	did not	
GSRIYQEFEVT [Peptide X-4]	did not	Not aggregated		did not	
ILNTWMDSTQIGYRWE [Peptide P16-1, scrambled peptide of 16 aa, control, reference compound]			no effect		
LDTNMGSRIYQEFEVT [Peptide X-3]	formed aggregates	Aggregated			
WINMDTGQLIEQRYTS [Peptide P16-2, reference compound]	did not	Not aggregated		no effect	no inhibitory effect
